Measurements reported in article PMC2943728.

Target: DNA polymerase beta (WT pol β) (UniProt P06746 1-335)
Experiment: EMSA

B1: 45AG 1-nt gapped DNA (dsDNA)
DNA 1: GCCTCGCAGCCGTCCAACCAAC
DNA 2: CAACCTCGATCCAATGCCGTCC
DNA 3: GGACGGCATTGGATCGAGGTTGAGTTGGTTGGACGGCTGCGAGGC
modifications: 5'-phosphate on downstream oligo and template
Kd: 78 nM
